# Assay results as given in IntAct's records for PubMed 21376300.
# B1: Band 4.1-like protein 1 (Rattus norvegicus (Rat)), Q9WTP0 (parent)
# chain: MTTETGPDSEVKKAQEETPQQPEAAAAVTTPVTPAGHSHPETNSNEKHLTQQDTRPAEQSLDMEEKDYCEADGLSERTTPSKAQKSPQKIAKKFKSATCRVTLLDASEYECEVEKHGRGQVLFDLVCEHLNLLEKDYFGLTFCDADSQKNWLDPSKEIKKQIRSSPWNFAFTVKFYPPDPAQLTEDITRYYLCLQLRADIITGRLPCSFVTHALLGSYAVQAELGDHDTEEHVGNYVSELRFAPNQTRELEERIMELHKTYRGMTPGEAEIHFLENAKKLSMYGVDLHHAKDSEGIDIMLGVCANGLLIYRDRLRINRFAWPKILKISYKRSNFYIKIRPGEYEQFESTIGFKLPNHRSAKRLWKVCIEHHTFFRLVSPEPPPKGFLVMGSKFRYSGRTQAQTRQASALIDRPAPFFERSSSKRYTMSRSLDGAEFSRPASVSENHDAGPDGDKREDDAESGGRRSEAEEGEVRTPTKIKELKPEQETTPRHKQEFLDKPEDVLLKHQASINELKRTLKEPNSKLIHRDRDWERERRLPSSPASPSPKGTPEKASERAGLREGSEEKVKPPRPRAPESDTGDEDQDQERDAVFLKDNHLAIERKCSSITVSSTSSLEAEVDFTVIGDYHGGAFEDFSRSLPELDRDKSDSETEGLVFARDLKGPSSQEDESGGIEDSPDRGACSTPELPQFESVKAETMTVSSLAIRKKIEPEAMLQSRVSTADSTQVDGGAPAAKDFMTTPPCITTETISTTMENSLKSGKGAAAMIPGPQTVATEIRSLSPIIGKDVLTSTYGATAETLSTSTTTHVTKTVKGGFSETRIEKRIIITGDEDVDQDQALALAIKEAKLQHPDMLVTKAVVYRETDPSPEERDKKPQES
# B2: Voltage-dependent calcium channel gamma-2 subunit (Rattus norvegicus (Rat)), Q71RJ2 (parent)
# chain: MGLFDRGVQMLLTTVGAFAAFSLMTIAVGTDYWLYSRGVCKTKSVSENETSKKNEEVMTHSGLWRTCCLEGNFKGLCKQIDHFPEDADYEADTAEYFLRAVRASSIFPILSVILLFMGGLCIAASEFYKTRHNIILSAGIFFVSAGLSNIIGIIVYISANAGDPSKSDSKKNSYSYGWSFYFGALSFIIAEMVGVLAVHMFIDRHKQLRATARATDYLQASAITRIPSYRYRYQRRSRSSSRSTEPSHSRDASPVGVKGFNTLPSTEISMYTLSRDPLKAATTPTATYNSDRDNSFLQVHNCIQKDSKDSLHANTANRRTTPV
# Variants of: B1
# Details: with gria1_rat Gria1, P19490
row,effect of a mutation on the interaction,Variant
1,decreasing interaction,P852S

# Variants of: B2
# Details: with gria1_rat Gria1, P19490
# Target sequence in this assay (P19490 whole entry): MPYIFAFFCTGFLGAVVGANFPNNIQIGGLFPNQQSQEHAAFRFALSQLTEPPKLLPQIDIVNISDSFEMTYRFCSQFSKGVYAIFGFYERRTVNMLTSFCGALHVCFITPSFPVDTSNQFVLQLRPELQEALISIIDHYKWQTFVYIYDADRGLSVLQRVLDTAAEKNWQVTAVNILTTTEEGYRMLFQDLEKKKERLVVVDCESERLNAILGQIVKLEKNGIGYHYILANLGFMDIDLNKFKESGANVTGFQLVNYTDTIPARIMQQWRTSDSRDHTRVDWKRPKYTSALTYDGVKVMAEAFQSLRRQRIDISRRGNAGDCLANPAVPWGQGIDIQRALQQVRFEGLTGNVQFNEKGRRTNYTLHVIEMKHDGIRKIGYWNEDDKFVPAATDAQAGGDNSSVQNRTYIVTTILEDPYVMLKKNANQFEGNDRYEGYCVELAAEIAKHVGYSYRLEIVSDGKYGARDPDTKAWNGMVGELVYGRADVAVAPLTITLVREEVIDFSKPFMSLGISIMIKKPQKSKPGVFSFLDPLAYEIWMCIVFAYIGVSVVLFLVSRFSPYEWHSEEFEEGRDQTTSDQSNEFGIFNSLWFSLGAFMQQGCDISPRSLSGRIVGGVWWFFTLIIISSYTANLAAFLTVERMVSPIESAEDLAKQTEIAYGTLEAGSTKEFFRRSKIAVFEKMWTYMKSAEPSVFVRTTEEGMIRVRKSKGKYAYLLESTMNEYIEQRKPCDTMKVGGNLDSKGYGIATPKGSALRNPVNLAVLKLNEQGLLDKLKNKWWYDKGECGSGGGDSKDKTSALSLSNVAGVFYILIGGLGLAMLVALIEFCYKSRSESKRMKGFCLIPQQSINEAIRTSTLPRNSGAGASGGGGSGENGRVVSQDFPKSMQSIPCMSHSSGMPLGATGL
row,effect of a mutation on the interaction,Variant
1,decreasing interaction,V143L

# Variants of: B2
# Details: with gria2_rat Gria2, P19491
# gria2_rat Gria2, P19491, sequence (P19491 whole entry): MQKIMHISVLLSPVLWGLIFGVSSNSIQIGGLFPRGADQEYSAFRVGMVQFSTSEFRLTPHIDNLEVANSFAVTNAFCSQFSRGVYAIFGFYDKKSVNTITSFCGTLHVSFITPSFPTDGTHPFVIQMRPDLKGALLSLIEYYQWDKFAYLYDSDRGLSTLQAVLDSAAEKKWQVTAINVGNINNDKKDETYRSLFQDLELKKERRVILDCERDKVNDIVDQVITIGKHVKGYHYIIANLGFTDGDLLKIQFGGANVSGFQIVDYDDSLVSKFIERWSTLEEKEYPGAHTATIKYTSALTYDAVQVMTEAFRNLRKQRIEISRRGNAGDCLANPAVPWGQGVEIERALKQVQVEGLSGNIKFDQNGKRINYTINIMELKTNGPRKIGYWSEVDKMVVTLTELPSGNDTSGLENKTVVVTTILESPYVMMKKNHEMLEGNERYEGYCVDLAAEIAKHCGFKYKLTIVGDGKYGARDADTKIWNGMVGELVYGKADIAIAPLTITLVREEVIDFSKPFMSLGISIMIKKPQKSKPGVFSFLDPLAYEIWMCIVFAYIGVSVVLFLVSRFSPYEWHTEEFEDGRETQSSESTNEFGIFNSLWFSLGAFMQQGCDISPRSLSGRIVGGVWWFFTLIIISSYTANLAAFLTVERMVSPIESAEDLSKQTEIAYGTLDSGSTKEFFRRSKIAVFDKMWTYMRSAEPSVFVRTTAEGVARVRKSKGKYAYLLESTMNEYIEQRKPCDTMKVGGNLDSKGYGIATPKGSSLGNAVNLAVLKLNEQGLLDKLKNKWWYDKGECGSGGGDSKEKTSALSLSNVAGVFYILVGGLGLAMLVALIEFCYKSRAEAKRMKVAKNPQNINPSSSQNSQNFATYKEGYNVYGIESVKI
row,effect of a mutation on the interaction,Variant
1,decreasing interaction,V143L
